The results in this text go back to paper PMC6134094 (mBio, 2018).

The target in this assay is T1, cleaved Ebola virus (EBOV) glycoprotein GPCL (Ebola virus (Zaire ebolavirus), UniProt Q05320).
T1 construct: copies: 3 + 3
In words: crystal structure. The following applies: both partners purified.

B1: ADI-15878 fragment antigen binding (Fab) (Fab, V domains shown)
VH: QVQLVQSGVTLVQPGGSLRVSCAASGFTFSSYAMSWVRQAPGKGLEWVSAISGLGGSTYYADSVKGRFTISRDNSKNTLYLQMNSLRAEDTAVYYCAKDHRVWAAGYHFDYWGQGALVTVSS
VL: DIVLTQSPSTLSASVGDRVTITCRASQSISSWLAWYQQKPGEAPKLLISDASSLESGVPSRFSGSGSGTEFTLTISSLQPDDFATYYCQQYYSSPTFGGGTKVEIK
notes: also called ADI-15878 Fab
Consider B1, for which the binding result is reported as “binds”.
